Assay results as given in publication PMC5593927, “Overlapping and Specific Functions of the Hsp104 N Domain Define Its Role in Protein Disaggregation” (Scientific Reports, 2017).
One block for each binder: values may come before it. Where no end group is shown, it is not given here. The star is where a group is joined. Biotin = O=C1N[C@H]2[C@H](CS[C@H]2CCCCC(=O)*)N1; Ahx = NCCCCCC(=O)O

Assays:
[1] = biological target: T1, Hsp104N, isolated N domain of S. cerevisiae Hsp104 (first 165 residues) (S. cerevisiae, UniProt P31539 1-165); test: BLI; Octet RED96; biotinylated C1 peptide immobilised on streptavidin biosensors at 0.5 µM; Hsp104N 4.3 to 137 µM in solution; 50 mM Tris-HCl pH 8.5, 20 mM ammonium citrate, 10% PEG4000, 0.1 mg/ml BSA; 25 °C; 10 min association, 10 min dissociation; equilibrium shifts from two independent measurements; conditions: both partners purified
T1 construct: Hsp104, S. cerevisiae, isolated N domain consisting of the first 165 residues, cloned into pProEX HTb; Tag cleavage by TEV is told in the general purification paragraph, not for Hsp104N by name; also called His6-Hsp104N; source: E. coli BL21-CodonPlus (DE3)-RIL, purified (Ni-NTA, anion exchange); not shown: His6, N-terminal, cleaved

[2] = biological target: the molecule itself; test: crystal structure; Hsp104ND1 crystals grown at 4 °C, space group P6_(5)22, one molecule per asymmetric unit, nucleotide-free; N domain of one molecule contacts the C1 helix of the neighboring molecule; 2.8 Å

- Kd [1]: 14 ± 1.7 µM
B1: Biotinylated C1 peptide (Biotin-Ahx-GEVAEPSVRQTVAILRGLQ) (peptide)
peptide: {Biotin-Ahx}-GEVAEPSVRQTVAILRGLQ
notes: Immobilised on streptavidin biosensors through the biotin; source: synthetic peptide (AAPPTec LLC)

B2: Hsp104ND1, N-terminal fragment of Saccharomyces cerevisiae Hsp104 (residues 1-360) (domain or fragment, S. cerevisiae, UniProt P31539 1-360, looked up)
chain: MNDQTQFTERALTILTLAQKLASDHQHPQLQPIHILAAFIETPEDGSVPYLQNLIEKGRYDYDLFKKVVNRNLVRIPQQQPAPAEITPSYALGKVLQDAAKIQKQQKDSFIAQDHILFALFNDSSIQQIFKEAQVDIEAIKQQALELRGNTRIDSRGADTNTPLEYLSKYAIDMTEQARQGKLDPVIGREEEIRSTIRVLARRIKSNPCLIGEPGIGKTAIIEGVAQRIIDDDVPTILQGAKLFSLDLAALTAGAKYKGDFEERFKGVLKEIEESKTLIVLFIDEIHMLMGNGKDDAANILKPALSRGQLKVIGATTNNEYRSIVEKDGAFERRFQKIEVAEPSVRQTVAILRGLQPKYE
notes: Hsp104, S. cerevisiae, residues 1-360: N domain and extended D1-large domain with the first helix of the D1-small domain (C1 helix, residues 343-351); residues 4 to 352 traced; The general purification text describes Ni-NTA and TEV cleavage of an N-terminal His6 tag; also called N-terminal fragment of yeast Hsp104
- binding result [2]: binds
